pKd: −log10 of the molar value. Values joined by “and” are separate entries in the source; they are usually repeats but may differ in a detail not shown here. Identical values can stand only once. Like-named read-outs stand apart in the source and are kept apart here.
Assays:
human α-glycoprotein = assay: Protein binding by isothermal titration microcalorimetry; details: α-glycoprotein […]10^−5M
Method: (§1) Integrated heat effects, after correction for heats of dilution, were analyzed by non-linear regression using a simple single-site binding model with the standard Microcal ORIGIN software package. Raw data (μcal/sec) for each injection were integrated to give the total heat effect per addition, then divided by amount of injectant to give kcal/mole of injectant. The same integration was applied for control dilution effects, and this was subtracted from the actual titration data. This provided a differential of the binding curve in which the extent of binding is proportional to the total heat liberated (or absorbed). This was then analyzed by non-linear regression methods in terms of various standard binding models.

human albumin = human albumin (Homo sapiens, UniProt P02768); assay: as above
Method: as §1

[1] = target: Human serum albumin (human) (UniProt P02768); assay: calculated from ITC Ka; antibiotic 100 µM, HSA 6x10^-4 M assumed
[2] = target: Human serum albumin (human) (UniProt P02768); assay: calculated from ITC Ka; antibiotic 1 µM, HSA 6x10^-4 M assumed
[3] = target: Human α-glycoprotein (human) (UniProt P02763); assay: ITC, 25 C, single-site model
[4] = target: Human serum albumin (human) (UniProt P02768); assay: ITC, 25 C, single-site model
[5] = target: Human α-glycoprotein (human) (UniProt P02763); assay: calculated from ITC Ka; antibiotic 10 µM, α-glycoprotein 1.5x10^-5 M assumed
[6] = target: Human α-glycoprotein (human) (UniProt P02763); assay: calculated from ITC Ka; antibiotic 100 µM, α-glycoprotein 1.5x10^-5 M assumed
[7] = target: Human α-glycoprotein (human) (UniProt P02763); assay: calculated from ITC Ka; antibiotic 1 µM, α-glycoprotein 1.5x10^-5 M assumed
[8] = target: Human serum albumin (human) (UniProt P02768); assay: calculated from ITC Ka; antibiotic 10 µM, HSA 6x10^-4 M assumed
[9] = target: N,N′-diacetyl-Lys-D-Ala-D-Ala; assay: ITC, 25 C, asymptote of the non-competitive binding model
[10] = target: N,N′-diacetyl-Lys-D-Ala-D-Ala; assay: ITC, 25 C, HSA 0 µM
[11] = target: N,N′-diacetyl-Lys-D-Ala-D-Ala; assay: ITC, 10 C, HSA 0 µM
[12] = target: N,N′-diacetyl-Lys-D-Ala-D-Ala; assay: ITC, 25 C, HSA 513 µM present
[13] = target: N,N′-diacetyl-Lys-D-Ala-D-Ala; assay: ITC, 25 C, no HSA, average
[14] = target: Human serum albumin (human) (UniProt P02768); assay: calculated from ITC Ka; antibiotic 165 µM, HSA 6x10^-4 M assumed
[15] = target: N,N′-diacetyl-Lys-D-Ala-D-Ala; assay: ITC, 37 C, HSA 0 µM
Rat albumin (rat) [16] = target: Rat albumin (rat) (UniProt P02770); assay: ITC, 25 C, single-site model
Bovine albumin (bovine) = Bovine albumin (bovine) (UniProt P02769); assay: ITC, 25 C, single-site model
Dog albumin (dog) [17] = target: Dog albumin (dog) (UniProt P49822); assay: ITC, 25 C, single-site model
[18] = target: Human α-glycoprotein (human) (UniProt P02763); assay: ITC, 37 C, single-site model
Rat albumin (rat) [19] = target: Rat albumin (rat) (UniProt P02770); assay: ITC, 37 C, single-site model
Dog albumin (dog) [20] = target: Dog albumin (dog) (UniProt P49822); assay: ITC, 37 C, single-site model
[21] = target: Human serum albumin (human) (UniProt P02768); assay: ITC, 37 C, single-site model
[22] = target: N,N′-diacetyl-Lys-D-Ala-D-Ala; assay: ITC, 25 C, HSA 104 µM present
[23] = target: N,N′-diacetyl-Lys-D-Ala-D-Ala; assay: ITC, 10 C, no HSA, average
[24] = target: N,N′-diacetyl-Lys-D-Ala-D-Ala; assay: ITC, 25 C, HSA 34.2 µM present
[25] = target: N,N′-diacetyl-Lys-D-Ala-D-Ala
[26] = target: N,N′-diacetyl-Lys-D-Ala-D-Ala; assay: ITC, 37 C, no HSA, average
[27] = target: N,N′-diacetyl-Lys-D-Ala-D-Ala; assay: ITC, 25 C, HSA 288 µM present
[28] = target: Human α-glycoprotein (human) (UniProt P02763); assay: calculated from ITC Ka; antibiotic 165 µM, α-glycoprotein 1.5x10^-5 M assumed
[29] = target: Human α-glycoprotein (human) (UniProt P02763); assay: calculated from ITC Ka; antibiotic 500 µM, α-glycoprotein 1.5x10^-5 M assumed
[30] = target: N,N′-diacetyl-Lys-D-Ala-D-Ala; remark: listed apart in the source
[31] = target: Human serum albumin (human) (UniProt P02768); assay: calculated from ITC Ka; antibiotic 500 µM, HSA 6x10^-4 M assumed
[32] = target: Human serum albumin (human) (UniProt P02768); assay: calculated from ITC Ka; antibiotic 250 µM, HSA 6x10^-4 M assumed
[33] = target: Human α-glycoprotein (human) (UniProt P02763); assay: calculated from ITC Ka; antibiotic 250 µM, α-glycoprotein 1.5x10^-5 M assumed
[34] = target: N,N′-diacetyl-Lys-D-Ala-D-Ala; remark: listed apart in the source
[35] = target: N,N′-diacetyl-Lys-D-Ala-D-Ala; assay: ITC, 25 C, apparent Kdiss plateau at high HSA
[36] = target: N,N′-diacetyl-Lys-D-Ala-D-Ala; assay: ITC, 25 C, HSA 430 µM present
[37] = target: N,N′-diacetyl-Lys-D-Ala-D-Ala; remark: listed apart in the source
[38] = target: N,N′-diacetyl-Lys-D-Ala-D-Ala; assay: ITC, preliminary experiments, no serum proteins
[39] = target: N,N′-diacetyl-Lys-D-Ala-D-Ala; assay: ITC, 37 C, HSA 516 µM present

Chain of Human α-glycoprotein (human) (P02763 19-201): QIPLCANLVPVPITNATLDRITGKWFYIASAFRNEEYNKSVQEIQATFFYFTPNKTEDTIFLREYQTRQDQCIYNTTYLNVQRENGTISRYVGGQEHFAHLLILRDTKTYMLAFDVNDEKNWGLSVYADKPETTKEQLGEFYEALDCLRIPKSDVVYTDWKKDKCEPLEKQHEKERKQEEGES
Chain of Rat albumin (rat) (P02770 25-608 limits assumed): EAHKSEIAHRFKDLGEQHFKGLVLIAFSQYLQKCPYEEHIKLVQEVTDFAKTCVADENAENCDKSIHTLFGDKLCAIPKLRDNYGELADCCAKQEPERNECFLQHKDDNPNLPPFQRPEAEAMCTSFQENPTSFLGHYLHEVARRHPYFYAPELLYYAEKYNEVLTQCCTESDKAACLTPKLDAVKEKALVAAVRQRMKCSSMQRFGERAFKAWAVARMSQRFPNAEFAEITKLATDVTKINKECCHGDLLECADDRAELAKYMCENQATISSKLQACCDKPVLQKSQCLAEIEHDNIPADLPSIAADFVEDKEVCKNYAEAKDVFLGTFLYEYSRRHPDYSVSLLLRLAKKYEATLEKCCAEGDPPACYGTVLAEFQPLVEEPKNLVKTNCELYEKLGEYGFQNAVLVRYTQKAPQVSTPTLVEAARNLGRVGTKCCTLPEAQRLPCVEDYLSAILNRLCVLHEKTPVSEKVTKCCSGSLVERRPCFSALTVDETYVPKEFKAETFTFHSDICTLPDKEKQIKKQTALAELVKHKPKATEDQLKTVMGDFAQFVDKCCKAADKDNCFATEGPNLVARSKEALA
Chain of Dog albumin (dog) (P49822 25-608 limits assumed): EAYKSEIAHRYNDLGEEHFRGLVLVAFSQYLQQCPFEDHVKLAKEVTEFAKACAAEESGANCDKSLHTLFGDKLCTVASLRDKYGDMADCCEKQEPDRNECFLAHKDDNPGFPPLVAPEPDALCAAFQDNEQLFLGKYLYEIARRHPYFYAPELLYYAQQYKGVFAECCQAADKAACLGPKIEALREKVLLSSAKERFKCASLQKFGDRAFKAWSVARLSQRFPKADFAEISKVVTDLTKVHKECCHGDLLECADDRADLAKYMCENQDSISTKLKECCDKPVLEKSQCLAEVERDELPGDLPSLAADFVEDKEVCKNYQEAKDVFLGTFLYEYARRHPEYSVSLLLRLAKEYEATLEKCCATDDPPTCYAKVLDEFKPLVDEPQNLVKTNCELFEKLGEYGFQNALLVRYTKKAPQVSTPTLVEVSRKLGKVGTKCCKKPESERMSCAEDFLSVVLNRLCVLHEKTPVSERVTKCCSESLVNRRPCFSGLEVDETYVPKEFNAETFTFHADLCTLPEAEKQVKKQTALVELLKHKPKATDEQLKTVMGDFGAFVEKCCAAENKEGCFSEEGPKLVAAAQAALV
Chain of Bovine albumin (bovine) (P02769 25-607 limits assumed): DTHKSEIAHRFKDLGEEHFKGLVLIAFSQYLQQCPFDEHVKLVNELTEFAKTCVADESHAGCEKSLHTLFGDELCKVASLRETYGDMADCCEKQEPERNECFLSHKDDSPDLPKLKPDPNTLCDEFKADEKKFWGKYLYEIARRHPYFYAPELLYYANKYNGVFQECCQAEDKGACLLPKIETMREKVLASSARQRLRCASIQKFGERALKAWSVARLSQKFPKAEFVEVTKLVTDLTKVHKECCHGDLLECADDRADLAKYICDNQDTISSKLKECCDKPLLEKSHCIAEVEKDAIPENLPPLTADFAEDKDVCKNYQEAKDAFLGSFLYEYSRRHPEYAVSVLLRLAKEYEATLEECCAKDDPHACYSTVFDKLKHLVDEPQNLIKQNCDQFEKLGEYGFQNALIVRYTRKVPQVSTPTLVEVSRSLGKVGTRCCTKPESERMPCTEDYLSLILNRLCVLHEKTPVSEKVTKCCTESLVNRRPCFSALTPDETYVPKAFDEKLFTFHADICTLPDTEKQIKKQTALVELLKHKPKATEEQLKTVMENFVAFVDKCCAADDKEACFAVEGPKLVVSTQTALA

## Teicoplanin [reference compound]
Human α-glycoprotein; antibiotic 1 μM
  Calculated percent binding: 9.6%
Human α-glycoprotein; antibiotic 10 μM
  Calculated percent binding: 9.1%
Human α-glycoprotein; antibiotic 100 μM
  Calculated percent binding: 6.0%
Human albumin
  binding stoichiometry modeling (drug:protein): 1:1 binding
Human albumin; antibiotic 100 μM, human serum albumin 6×10^−4 M
  Calculated percent binding: 98.0%

## Teicoplanin (peptide)
[1]
  calculated percent bound: 98%
[2]
  calculated percent bound: 98.3%
[3]
  Ka: 7000 M⁻¹
[4]
  Ka: 96000 M⁻¹
[5]
  calculated percent bound: 9.1%
[6]
  calculated percent bound: 6%
[7]
  calculated percent bound: 9.6%
[8]
  calculated percent bound: 98.3%

## dalbavancin-HSA complex (from UniProt P02768 25-609)
[9]
  pKd: 4.46

## Vancomycin hydrochloride (Sigma V-2002, fw 1485.7) (peptide)
[10]
  Ka: 340000 M⁻¹ and 360000 M⁻¹
  pKd: 5.53 and 5.56
  ΔH: -10.7 kcal/mol and -12.9 kcal/mol
  ΔS: -10.6 eu and -17.8 eu
[11]
  Ka: 690000 M⁻¹
  pKd: 5.84
  ΔH: -9.49 kcal/mol
  ΔS: -6.8 eu
[12]
  Ka: 290000 M⁻¹
  pKd: 5.46
  ΔH: -10.1 kcal/mol
  ΔS: -8.8 eu

## Dalbavancin (peptide)
[13]
  pKd: 5.51
[14]
  calculated percent bound: 98.6%
[1]
  calculated percent bound: 98.7%
[2]
  calculated percent bound: 98.8%
[15]
  Ka: 130000 M⁻¹ and 110000 M⁻¹
  pKd: 5.11 and 5.04
  ΔH: -12.5 kcal/mol and -17.4 kcal/mol
  ΔS: -16.8 eu and -33.2 eu
[3]
  Ka: 184000 M⁻¹
Rat albumin (rat) [16]
  Ka: 310000 M⁻¹
Bovine albumin (bovine)
  Ka: 138000 M⁻¹
Dog albumin (dog) [17]
  Ka: 62000 M⁻¹
[4]
  Ka: 135000 M⁻¹
[5]
  calculated percent bound: 68.2%
[18]
  Ka: 480000 M⁻¹
Rat albumin (rat) [19]
  Ka: 280000 M⁻¹
Dog albumin (dog) [20]
  Ka: 50000 M⁻¹
[21]
  Ka: 133000 M⁻¹
[6]
  calculated percent bound: 26.2%
[22]
  Ka: 34900 M⁻¹
  pKd: 4.54
  ΔH: -18.6 kcal/mol
  ΔS: -41.7 eu
[23]
  pKd: 5.85
[24]
  Ka: 35000 M⁻¹
  pKd: 4.54
  ΔH: -20 kcal/mol
  ΔS: -46.2 eu
[25]
  Ka: 27600 M⁻¹
  pKd: 4.44
  ΔH: -16.9 kcal/mol
  ΔS: -36.5 eu
[26]
  pKd: 5.08
[11]
  ΔH: -10.3 kcal/mol (2×) and -8.95 kcal/mol
  ΔS: -9.6 eu and -4.3 eu and -9.9 eu
[27]
  Ka: 31000 M⁻¹
  pKd: 4.49
  ΔH: -21.1 kcal/mol
  ΔS: -50 eu
[28]
  calculated percent bound: 16.9%
[29]
  calculated percent bound: 5.9%
[30]
  Ka: 21800 M⁻¹
  pKd: 4.34
  ΔH: -15 kcal/mol
  ΔS: -30.4 eu
[31]
  calculated percent bound: 98%
[32]
  calculated percent bound: 98.5%
[33]
  calculated percent bound: 11.4%
[34]
  Ka: 118000 M⁻¹
  pKd: 5.07
  ΔH: -27.8 kcal/mol and -26.4 kcal/mol
  ΔS: -70.1 eu and -65.5 eu
[35]
  pKd: 4.46
[36]
  Ka: 28400 M⁻¹
  pKd: 4.45
  ΔH: -19.5 kcal/mol
  ΔS: -44.9 eu
[37]
  Ka: 12500 M⁻¹
  pKd: 4.10
  ΔH: -98.6 kcal/mol
  ΔS: -299 eu
[7]
  calculated percent bound: 73%
[38]
  pKd: 5.00 to 6.00
[39]
  Ka: 9570 M⁻¹
  pKd: 3.98
  ΔH: -26.6 kcal/mol
  ΔS: -67.6 eu
[8]
  calculated percent bound: 98.8%

Source: patent US20050004011A1, “Compositions and methods for treating bacterial infections with protein-dalbavancin complexes” (priority 2002, published 2005)
